Experimental data: the supplement of paper PMC10065799, “High-throughput profiling of sequence recognition by tyrosine kinases and SH2 domains using bacterial peptide display” (eLife, 2023)

Experiments:
SHP2-C SH2 = assay: SH2 binding enrichment of the phosphorylated peptide, bacterial display (enrichment ratio); higher = better substrate or ligand; peptides without Tyr show the background
c-Src SH2 = assay: as above
Grb2 SH2 = Grb2 SH2 (UniProt P62993); assay: as above
c-Src = assay: phosphorylation enrichment, bacterial display (enrichment ratio); higher = better substrate or ligand; peptides without Tyr show the background
EPHB1 = EPHB1 (UniProt P54762); assay: as above
Fyn = Fyn (UniProt P06241); assay: as above
Jak2 = Jak2 (UniProt O60674); assay: as above
EPHB2 = EPHB2 (UniProt P29323); assay: as above
c-Abl (mouse) = assay: as above
Fer (mouse) = assay: as above
Fes = Fes (UniProt P07332); assay: as above
Hck = Hck (UniProt P08631); assay: as above
FGFR1 = FGFR1 (UniProt P11362); assay: as above
MERTK = MERTK (UniProt Q12866); assay: as above
AncSZ = assay: as above
FGFR3 = FGFR3 (UniProt P22607); assay: as above
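Wherever SH2 binding enrichment of the phosphorylated peptide, bacterial display is given: peptide library displayed on the E. coli surface as eCPX fusions, selected cells deep-sequenced, score is each peptide's frequency after selection divided by its frequency in the input.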
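Wherever phosphorylation enrichment, bacterial display is given: 11-residue human phosphosite peptides and single-mutation variants displayed on the E. coli surface, counted by deep sequencing, each peptide's frequency after selection divided by its frequency in the unselected input library; frequency after pTyr selection over input frequency; kinase dosed for 20-30% of maximal phosphorylation in three min.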

Chain of Grb2 SH2 (P62993 whole entry, looked up): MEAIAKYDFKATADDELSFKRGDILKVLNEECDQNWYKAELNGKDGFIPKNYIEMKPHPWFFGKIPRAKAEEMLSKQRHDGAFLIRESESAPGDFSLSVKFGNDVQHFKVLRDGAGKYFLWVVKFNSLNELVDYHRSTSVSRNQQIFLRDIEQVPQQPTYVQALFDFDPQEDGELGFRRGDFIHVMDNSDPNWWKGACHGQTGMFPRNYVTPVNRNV
Chain of FGFR1 (P11362 whole entry, looked up): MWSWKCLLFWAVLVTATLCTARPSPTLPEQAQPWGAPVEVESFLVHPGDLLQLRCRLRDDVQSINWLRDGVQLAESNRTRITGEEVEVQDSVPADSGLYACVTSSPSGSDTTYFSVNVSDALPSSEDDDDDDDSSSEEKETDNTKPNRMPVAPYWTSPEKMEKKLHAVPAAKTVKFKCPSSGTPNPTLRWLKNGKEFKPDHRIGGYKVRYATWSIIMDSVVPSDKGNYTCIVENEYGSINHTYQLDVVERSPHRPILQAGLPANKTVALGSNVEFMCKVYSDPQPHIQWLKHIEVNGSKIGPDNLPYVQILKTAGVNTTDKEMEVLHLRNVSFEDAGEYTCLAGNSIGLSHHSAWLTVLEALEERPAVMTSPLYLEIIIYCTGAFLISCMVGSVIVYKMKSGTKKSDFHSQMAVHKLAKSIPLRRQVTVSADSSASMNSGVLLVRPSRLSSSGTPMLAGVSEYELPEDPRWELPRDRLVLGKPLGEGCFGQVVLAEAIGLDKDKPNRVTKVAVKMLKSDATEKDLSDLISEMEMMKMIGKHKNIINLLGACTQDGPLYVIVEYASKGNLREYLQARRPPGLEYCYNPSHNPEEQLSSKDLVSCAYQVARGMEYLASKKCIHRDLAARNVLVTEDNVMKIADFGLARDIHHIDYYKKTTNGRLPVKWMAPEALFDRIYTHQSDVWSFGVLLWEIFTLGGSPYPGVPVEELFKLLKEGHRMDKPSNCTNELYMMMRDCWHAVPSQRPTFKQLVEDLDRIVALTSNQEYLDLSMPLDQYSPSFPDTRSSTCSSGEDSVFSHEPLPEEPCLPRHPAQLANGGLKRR
Chain of FGFR3 (P22607 whole entry, looked up, the tested form may be a part): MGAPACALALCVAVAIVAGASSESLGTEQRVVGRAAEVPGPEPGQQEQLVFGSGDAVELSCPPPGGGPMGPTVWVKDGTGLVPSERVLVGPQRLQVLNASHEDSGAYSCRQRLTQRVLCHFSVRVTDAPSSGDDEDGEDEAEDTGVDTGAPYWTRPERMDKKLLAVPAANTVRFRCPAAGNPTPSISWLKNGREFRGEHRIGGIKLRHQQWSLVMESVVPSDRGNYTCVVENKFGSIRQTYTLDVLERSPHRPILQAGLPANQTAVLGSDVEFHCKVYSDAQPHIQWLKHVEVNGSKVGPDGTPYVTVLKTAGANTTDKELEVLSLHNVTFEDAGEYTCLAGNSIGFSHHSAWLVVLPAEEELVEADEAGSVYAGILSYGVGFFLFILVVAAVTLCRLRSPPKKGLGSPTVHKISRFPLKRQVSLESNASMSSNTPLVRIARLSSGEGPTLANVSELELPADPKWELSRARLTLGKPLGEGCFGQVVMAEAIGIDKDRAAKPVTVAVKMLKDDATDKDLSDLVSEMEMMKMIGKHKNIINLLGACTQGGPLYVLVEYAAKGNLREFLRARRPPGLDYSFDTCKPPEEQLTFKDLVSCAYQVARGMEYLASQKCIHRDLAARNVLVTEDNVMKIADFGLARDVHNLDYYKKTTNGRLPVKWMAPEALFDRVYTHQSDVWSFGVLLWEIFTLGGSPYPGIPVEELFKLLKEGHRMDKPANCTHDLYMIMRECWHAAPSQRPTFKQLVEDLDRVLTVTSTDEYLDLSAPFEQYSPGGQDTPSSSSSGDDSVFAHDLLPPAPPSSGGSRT
Chain of Hck (P08631 whole entry, looked up): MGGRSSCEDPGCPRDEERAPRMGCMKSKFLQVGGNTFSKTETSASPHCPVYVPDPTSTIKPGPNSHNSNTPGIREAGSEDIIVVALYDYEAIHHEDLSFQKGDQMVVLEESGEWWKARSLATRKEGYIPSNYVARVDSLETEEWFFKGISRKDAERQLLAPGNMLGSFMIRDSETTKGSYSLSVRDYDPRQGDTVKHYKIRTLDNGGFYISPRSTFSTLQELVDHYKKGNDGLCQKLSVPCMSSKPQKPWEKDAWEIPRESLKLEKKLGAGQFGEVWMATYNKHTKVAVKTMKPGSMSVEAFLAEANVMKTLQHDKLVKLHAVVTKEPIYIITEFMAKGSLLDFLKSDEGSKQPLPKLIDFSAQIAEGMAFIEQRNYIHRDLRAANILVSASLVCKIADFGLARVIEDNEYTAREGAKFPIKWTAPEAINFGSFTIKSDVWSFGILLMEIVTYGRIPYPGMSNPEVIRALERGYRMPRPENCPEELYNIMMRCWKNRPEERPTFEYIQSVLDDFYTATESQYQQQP
Chain of Fyn (P06241 whole entry, looked up): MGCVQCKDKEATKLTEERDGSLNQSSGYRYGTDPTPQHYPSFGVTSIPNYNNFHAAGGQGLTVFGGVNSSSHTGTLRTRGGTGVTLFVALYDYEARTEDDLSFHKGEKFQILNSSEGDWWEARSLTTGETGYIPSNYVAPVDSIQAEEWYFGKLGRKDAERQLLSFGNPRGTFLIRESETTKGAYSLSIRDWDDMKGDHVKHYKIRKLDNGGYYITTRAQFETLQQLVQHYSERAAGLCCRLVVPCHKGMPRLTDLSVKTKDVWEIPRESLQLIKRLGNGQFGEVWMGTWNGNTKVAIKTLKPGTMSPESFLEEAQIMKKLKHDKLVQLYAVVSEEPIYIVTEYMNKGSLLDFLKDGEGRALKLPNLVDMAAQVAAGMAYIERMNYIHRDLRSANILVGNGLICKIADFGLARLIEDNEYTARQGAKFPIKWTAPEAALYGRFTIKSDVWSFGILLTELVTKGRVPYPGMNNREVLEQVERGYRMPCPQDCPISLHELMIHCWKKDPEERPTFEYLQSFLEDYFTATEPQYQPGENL
Chain of EPHB2 (P29323 whole entry, looked up): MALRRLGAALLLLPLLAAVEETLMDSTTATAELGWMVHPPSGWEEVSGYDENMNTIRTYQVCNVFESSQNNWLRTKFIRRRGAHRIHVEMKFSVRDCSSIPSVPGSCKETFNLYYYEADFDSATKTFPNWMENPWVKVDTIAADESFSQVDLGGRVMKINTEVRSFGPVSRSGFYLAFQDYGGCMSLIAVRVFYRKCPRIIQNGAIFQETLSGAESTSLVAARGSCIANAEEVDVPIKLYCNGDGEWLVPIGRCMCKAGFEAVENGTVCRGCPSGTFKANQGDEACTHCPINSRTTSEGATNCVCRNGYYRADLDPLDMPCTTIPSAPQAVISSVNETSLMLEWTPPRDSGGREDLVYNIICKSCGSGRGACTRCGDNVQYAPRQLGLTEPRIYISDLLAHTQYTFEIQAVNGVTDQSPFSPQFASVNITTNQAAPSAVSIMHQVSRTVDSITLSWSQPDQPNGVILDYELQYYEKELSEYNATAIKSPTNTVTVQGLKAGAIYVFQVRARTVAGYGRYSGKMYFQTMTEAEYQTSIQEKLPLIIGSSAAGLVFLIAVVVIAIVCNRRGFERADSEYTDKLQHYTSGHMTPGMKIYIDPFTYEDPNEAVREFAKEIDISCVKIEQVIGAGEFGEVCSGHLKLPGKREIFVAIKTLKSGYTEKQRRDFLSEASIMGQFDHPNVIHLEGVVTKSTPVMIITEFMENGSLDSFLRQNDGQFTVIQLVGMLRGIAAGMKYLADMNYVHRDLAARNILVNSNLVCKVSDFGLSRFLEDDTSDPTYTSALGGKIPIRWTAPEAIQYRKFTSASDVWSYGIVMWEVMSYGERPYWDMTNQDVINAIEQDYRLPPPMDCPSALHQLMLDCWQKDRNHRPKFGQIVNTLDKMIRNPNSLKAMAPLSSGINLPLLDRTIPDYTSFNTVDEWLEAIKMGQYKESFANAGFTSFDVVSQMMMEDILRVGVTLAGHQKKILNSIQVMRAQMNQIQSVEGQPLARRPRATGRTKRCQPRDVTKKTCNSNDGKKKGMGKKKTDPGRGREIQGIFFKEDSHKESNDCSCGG
Chain of Fes (P07332 whole entry, looked up): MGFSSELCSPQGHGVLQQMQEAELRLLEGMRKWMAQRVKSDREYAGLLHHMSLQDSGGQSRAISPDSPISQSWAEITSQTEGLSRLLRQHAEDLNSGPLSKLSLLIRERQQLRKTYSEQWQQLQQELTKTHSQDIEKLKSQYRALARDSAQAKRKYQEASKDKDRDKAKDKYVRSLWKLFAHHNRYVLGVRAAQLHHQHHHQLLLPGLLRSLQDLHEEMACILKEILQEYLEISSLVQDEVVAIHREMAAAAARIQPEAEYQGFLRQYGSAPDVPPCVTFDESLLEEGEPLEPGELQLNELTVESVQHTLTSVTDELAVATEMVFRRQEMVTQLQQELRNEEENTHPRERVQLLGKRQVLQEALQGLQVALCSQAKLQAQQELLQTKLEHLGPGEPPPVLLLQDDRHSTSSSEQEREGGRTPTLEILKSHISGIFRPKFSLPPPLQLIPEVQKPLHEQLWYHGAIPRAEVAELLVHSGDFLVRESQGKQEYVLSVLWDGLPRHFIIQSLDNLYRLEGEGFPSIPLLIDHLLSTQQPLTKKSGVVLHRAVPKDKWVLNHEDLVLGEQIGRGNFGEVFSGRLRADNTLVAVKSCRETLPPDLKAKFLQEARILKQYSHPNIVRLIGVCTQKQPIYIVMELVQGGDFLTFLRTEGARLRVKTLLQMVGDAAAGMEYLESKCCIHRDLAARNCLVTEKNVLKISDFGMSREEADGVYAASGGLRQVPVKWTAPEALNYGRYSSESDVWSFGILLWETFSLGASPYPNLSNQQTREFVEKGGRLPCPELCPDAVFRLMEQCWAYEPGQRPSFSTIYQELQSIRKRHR

Sequence	SH2 binding enrichment (SHP2-C SH2)	SH2 binding enrichment (c-Src SH2)	SH2 binding enrichment (Grb2 SH2)	phosphorylation enrichment (c-Src)	phosphorylation enrichment (EPHB1)	phosphorylation enrichment (Fyn)	phosphorylation enrichment (Jak2)	phosphorylation enrichment (EPHB2)	phosphorylation enrichment (c-Abl (mouse))	phosphorylation enrichment (Fer (mouse))	phosphorylation enrichment (Fes)	phosphorylation enrichment (Hck)	phosphorylation enrichment (FGFR1)	phosphorylation enrichment (MERTK)	phosphorylation enrichment (AncSZ)	phosphorylation enrichment (FGFR3)
DLLNSYTENEG [HSPA4L_Y600_I601T]	0.882	0.457	0.7	0.616	0.482	0.614	1.16	0.618	0.623	0.446	1.24	0.603	0.578	0.492	1.17	0.759
FCRITYDIFPF [INTS13_Y67_M66T_YF]	0.853	0.485	1.03	2.36	2.38	1.31	1.29	3.05	1.12	0.594	1.6	2.62	0.514	2.2	1.66	1.05
NTFEKYLGEEF [TF_Y669_YF]	0.656	0.378	0.667	0.429	0.587	0.454	0.922	0.572	0.641	0.491	1.21	0.479	0.509	0.379	1.08	0.75
KVGPGSLGSGG [RET_Y826_Y826S]	0.526	0.447	0.778	0.374	0.29	0.352	0.466	0.353	0.482	0.293	0.489	0.323	0.308	0.3	0.4	0.366
RPAPQYPHQVP [ADAM12_Y895]	0.687	0.647	1.06	0.819	0.572	0.715	1.36	0.463	1.01	0.685	1.02	0.582	0.608	0.718	1.3	1.03
PESCLYKESWL [IQGAP2_Y630]	1.06	0.523	0.916	0.775	1.29	1.21	2.09	1.2	1.46	1.18	2.81	1.5	1.55	1.2	2.25	2.14
CRAVKYLQMVG [AVPR2_Y117]	1.24	0.521	0.964	0.401	0.608	0.405	0.619	0.44	0.522	0.443	0.739	0.504	0.499	0.379	0.711	0.574
DDKQPYEKKAA [HMGB1_Y144]	0.741	0.606	0.964	0.436	0.585	0.518	0.851	0.464	0.539	0.475	0.947	0.536	0.493	0.415	0.988	0.629
PEYVVYKPQME [CCRL2_Y170_F167Y]	1.05	0.439	0.913	9.4	2.97	9.13	5.75	7.28	9.5	1.09	1.29	6.69	8.3	1.14	6.34	6.08
NFSKMYCNPDA [KNL1_Y489_A486S_YF]	0.619	2.54	0.751	0.426	0.562	0.486	0.894	0.613	0.699	0.563	0.924	0.488	0.46	0.524	0.94	0.802
LPQDGYRIVQH [PTPRT_Y1329_R1324L]	0.708	0.44	0.727	0.346	0.402	0.43	0.575	0.423	0.716	0.408	0.809	0.418	0.403	0.361	0.672	0.55
RREWYYEVIIV [BACE1_Y260]	0.75	0.545	0.873	0.635	0.516	0.571	0.389	0.725	0.771	0.835	0.751	0.718	2.85	0.832	0.874	2.03
CTTIHYNYTCN [TP53_Y234_M237T]	1.86	3.29	1.47	0.414	0.492	0.445	0.726	0.556	0.585	0.476	0.837	0.416	0.47	0.403	0.756	0.624
CHSDDYVHISI [TSC1_Y406_L411I]	0.723	0.575	0.811	0.524	0.898	0.532	1.07	0.67	0.879	0.597	1.39	0.573	1.65	0.457	1.65	1.29
KLKPIYFHTQG [AR_Y916_V912L]	2.12	1.95	1.78	0.523	0.393	0.349	0.513	0.503	0.568	0.312	0.671	0.364	0.511	0.4	0.602	0.525
AVVEPYNSLLT [TUBA1A_Y185_I188L]	0.648	1.31	0.786	0.463	0.574	0.426	1.19	0.618	0.579	0.394	0.891	0.427	0.399	0.454	0.888	0.54
